Measured values published in US20240247072A1 (KEYMED BIOSCIENCES, published 2024).

Columns and labels:
[1] = biological target: T1, human CD70, full length, on CHO cells (CHO-human CD70-B07) (human, UniProt P32970 1-193); assay: flow cytometry, chimeric IgG on CHO-human CD70 cells
T1 construct: whole, on cells; Stably transfected CHO cells; also called CHO-CD70
T1 sequence (looked up): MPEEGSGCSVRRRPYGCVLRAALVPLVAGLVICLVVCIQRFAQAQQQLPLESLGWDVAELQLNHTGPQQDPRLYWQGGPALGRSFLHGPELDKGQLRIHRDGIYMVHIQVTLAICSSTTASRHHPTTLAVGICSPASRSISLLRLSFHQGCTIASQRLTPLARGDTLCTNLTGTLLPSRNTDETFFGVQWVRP

[2] = biological target: T2, cynomolgus monkey CD70, full length, on CHO cells (CHO-monkey CD70-D01) (cynomolgus monkey, UniProt A0A2K5WTU9 1-190); assay: flow cytometry, chimeric IgG on CHO-cynomolgus monkey CD70 cells
T2 construct: whole, on cells; Stably transfected CHO cells; also called CHO-cynomolgus monkey CD70
T2 sequence: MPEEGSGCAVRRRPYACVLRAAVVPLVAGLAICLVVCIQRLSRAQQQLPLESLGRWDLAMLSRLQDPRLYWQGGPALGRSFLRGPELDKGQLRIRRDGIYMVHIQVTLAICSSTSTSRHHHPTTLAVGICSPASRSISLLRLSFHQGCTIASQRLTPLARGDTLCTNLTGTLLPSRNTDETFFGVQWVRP
Method: Different cells in logarithmic growth phase were taken, blocked with 3% BSA for 30 minutes, and plated to a 96-well U-plate at 5×10⁴ cells/100 μL. The centrifuge was performed at 1100 rpm for 3 minutes. The supernatant was discarded and the cells were gently tapped to be loosening. 50 μL of gradient diluted antibody was added (antibody concentration: from 30 μg/mL, 3-fold dilution for 5 gradients) per well, and incubated at 4° C. for 1 hour. After incubation, 180 μL of 0.5% BSA was added to each well for washing 3 times. 30 μL/well of secondary antibody AlexaFluro647 anti-human IgG (Jackson Immuno Research, Cat. No: 109-606-170) was added and incubated at 4° C. for 45 minutes. At the end of the incubation, each well was washed 3 times with 180 μL of 0.5% BSA and finally resuspended in 50 μL of PBS for iQue (Intellicyt, USA) assay.

[3] = biological target: T3, recombinant trimeric protein of human CD70 extracellular region (human CD70 mIgG Fc (knob) / mouse IgG Fc … (human, UniProt P01863 98-330 = IgG part)); assay: competition ELISA, chimeric IgG titrated, CD27 coated, biotin-CD70, human pair
T3 construct: The ELISA and Octet texts say only 'recombinant CD70 protein' / 'CM352 antigen'; also called recombinant human CD70 protein; recombinant CD70 protein
T3 chain 1: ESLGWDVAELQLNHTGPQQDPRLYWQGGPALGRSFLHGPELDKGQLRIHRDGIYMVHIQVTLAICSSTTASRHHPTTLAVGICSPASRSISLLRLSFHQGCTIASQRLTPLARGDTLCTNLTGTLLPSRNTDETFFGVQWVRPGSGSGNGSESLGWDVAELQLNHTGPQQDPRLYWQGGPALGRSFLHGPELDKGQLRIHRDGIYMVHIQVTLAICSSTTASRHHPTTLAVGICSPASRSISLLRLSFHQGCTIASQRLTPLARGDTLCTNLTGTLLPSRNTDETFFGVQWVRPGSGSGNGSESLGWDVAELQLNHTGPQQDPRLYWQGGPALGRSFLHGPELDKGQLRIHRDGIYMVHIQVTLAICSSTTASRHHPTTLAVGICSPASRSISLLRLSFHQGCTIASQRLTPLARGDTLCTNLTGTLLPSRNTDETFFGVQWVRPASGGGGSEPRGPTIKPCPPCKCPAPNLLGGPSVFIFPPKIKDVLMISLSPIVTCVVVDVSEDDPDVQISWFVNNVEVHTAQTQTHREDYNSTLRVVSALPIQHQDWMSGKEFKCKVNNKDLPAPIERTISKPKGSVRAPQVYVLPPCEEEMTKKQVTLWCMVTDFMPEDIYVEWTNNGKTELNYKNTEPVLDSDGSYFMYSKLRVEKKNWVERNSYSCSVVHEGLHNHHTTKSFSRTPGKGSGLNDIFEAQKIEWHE
T3 chain 2: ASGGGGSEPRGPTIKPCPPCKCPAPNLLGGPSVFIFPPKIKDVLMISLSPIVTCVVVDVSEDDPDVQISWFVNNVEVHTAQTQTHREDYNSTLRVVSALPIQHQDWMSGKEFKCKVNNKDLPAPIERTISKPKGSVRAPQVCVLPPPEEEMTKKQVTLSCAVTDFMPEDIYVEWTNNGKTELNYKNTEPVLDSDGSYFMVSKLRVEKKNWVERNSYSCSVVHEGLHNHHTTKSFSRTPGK

[4] = biological target: T4, recombinant cynomolgus monkey CD70 protein (cynomolgus monkey, UniProt A0A2K5WTU9 39-190); assay: competition ELISA, chimeric IgG titrated, CD27 coated, biotin-CD70, cynomolgus pair
T4 construct: it stands only in column heads ('Monkey', 'Cynomolgus Monkey CD70/CD27') and in result sentences; also called Monkey (ELISA)
T4 sequence: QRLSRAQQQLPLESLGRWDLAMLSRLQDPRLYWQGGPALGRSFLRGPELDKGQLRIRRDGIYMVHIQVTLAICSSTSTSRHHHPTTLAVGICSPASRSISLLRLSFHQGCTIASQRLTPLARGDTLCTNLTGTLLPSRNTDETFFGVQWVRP
Method: The recombinant CD27 protein was coated at 1 μg/mL in a 96-well microtiter plate and incubated overnight at 4° C. The next day, the plate was washed 3 times with PBS, added with 200 μL of 2% defatted dry milk/PBS, blocked at room temperature for 2 hours, and washed once with PBS. The purified chimeric antibody was divided to 12 concentration gradients starting at 100 nM and diluted in a 1:3 gradient. […] of the antibody was added per well and incubated at room temperature for 30 minutes. […] The plate was washed 3 times with PBST and PBS and dried by spinning. A secondary antibody Streptavidin-coupled horseradish peroxidase SA-HRP (BD bioscience, cat. No: 6222697) was diluted with 0.5% BSA in a ratio of 1:8000. 100 μL of the diluent was added into each well and incubated at room temperature for 30 minutes. The plate was washed 3 times with PBST and PBS and dried by spinning. 100 μl of color development solution (TMB solution, Sigma, Cat. No: T2885) was added into each well and protected from light at 37° C. for reaction. After the substrate developed moderately, 50 μl of H₂SO₄ was added into each well to terminate the reaction. The OD450 nm was determined by using an enzyme-linked detector within 30 minutes, and the data was collected. The results were calculated by using Graph Pad Prism 5 software.

[5] = biological target: T1, human CD70, full length, on CHO cells …; assay: FACS (iQue) on CHO-human CD70 stably transfected cells, Alexa Fluor 647 anti-human IgG secondary antibody
Method: (§1) The supernatant was discarded and the cells were gently tapped to be loosening. 50 μL of gradient diluted antibodies were added (antibody concentration: from 30 μg/mL, 3-fold dilution for 8 gradients) per well, and incubated at 4° C. for 1 hour. After incubation, 200 μL of 0.5% BSA was added to each well for washing 3 times. 50 μL/well of secondary antibody Alexa Fluro647 anti-human IgG (Jackson ImmunoResearch, Cat. No: 109-606-170) was added and incubated at 4° C. for 45 minutes. At the end of the incubation, each well was washed 3 times with 180 μL of 0.5% BSA and finally resuspended in 50 μL of PBS for iQue (Intellicyt) assay.

[6] = biological target: T2, cynomolgus monkey CD70, full length, on …; assay: FACS (iQue) on CHO-cynomolgus monkey CD70 stably transfected cells, Alexa Fluor 647 anti-human IgG secondary antibody
Method: as §1

EC50 [1]: 10.2 nM
EC50 [2]: 15.1 nM
IC50 [3]: 0.06 nM
IC50 [4]: 0.08 nM
EC50 (read off the curve) [5]: ~3 nM
EC50 (read off the curve) [6]: ~3 nM
B1: 39H5 chimeric antibody (antibody, V domains shown)
VH: EIQLVQSGPELKKPGETVKISCKASGYTFTNYGMNWVKQAPGQGLKWMGWINTYTGEPTYADDFTGRFAFSLETSASTAYLQINNLKNEDMAAYFCAREEDYRYVFNYWGQGTTLTVSS
VL: DIQMIQSTSSLSASLGNRVTISCRASQDISNYLNWYQQKPDGTVKLLIYDTSRLHAGVPSRFSGSGSGTDYSLTISNLEQEDIATYFCQQGVTLPLTFGAGTKLEIK
